According to US20220143024A1, “METHODS OF USING IMIPRIDONES” (Board of Regents, The University of Texas System, priority 2019, published 2022):

What was measured:
Assay in all cases: BioID-MS +ONC201
[1] = molecular target: MRPS23 (human) (UniProt Q9Y3D9)
[2] = molecular target: MRPL54 (human) (UniProt Q6P161)
[3] = molecular target: EARS2 (human) (UniProt Q5JPH6)
[4] = molecular target: DCAKD (human) (UniProt Q8WVC6)
[5] = molecular target: ARG2 (human) (UniProt P78540)
[6] = molecular target: NDUFS8 (human) (UniProt O00217)
Sequence of NDUFS8 (human) (O00217 35-210 limits assumed): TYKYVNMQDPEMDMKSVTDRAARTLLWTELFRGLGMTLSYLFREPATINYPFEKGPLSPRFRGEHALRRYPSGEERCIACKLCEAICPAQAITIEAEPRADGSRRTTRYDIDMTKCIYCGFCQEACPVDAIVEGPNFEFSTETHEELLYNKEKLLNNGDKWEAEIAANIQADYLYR

[7] = molecular target: NDUFA2 (human) (UniProt O43678)
Sequence of NDUFA2 (human) (O43678 2-99 limits assumed): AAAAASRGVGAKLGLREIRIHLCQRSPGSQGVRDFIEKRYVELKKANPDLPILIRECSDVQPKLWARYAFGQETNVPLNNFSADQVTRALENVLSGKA

[8] = molecular target: NADKD1 (human) (UniProt Q4G0N4)
[9] = molecular target: TARS2 (human) (UniProt Q9BW92)
Sequence of TARS2 (human) (Q9BW92 whole entry): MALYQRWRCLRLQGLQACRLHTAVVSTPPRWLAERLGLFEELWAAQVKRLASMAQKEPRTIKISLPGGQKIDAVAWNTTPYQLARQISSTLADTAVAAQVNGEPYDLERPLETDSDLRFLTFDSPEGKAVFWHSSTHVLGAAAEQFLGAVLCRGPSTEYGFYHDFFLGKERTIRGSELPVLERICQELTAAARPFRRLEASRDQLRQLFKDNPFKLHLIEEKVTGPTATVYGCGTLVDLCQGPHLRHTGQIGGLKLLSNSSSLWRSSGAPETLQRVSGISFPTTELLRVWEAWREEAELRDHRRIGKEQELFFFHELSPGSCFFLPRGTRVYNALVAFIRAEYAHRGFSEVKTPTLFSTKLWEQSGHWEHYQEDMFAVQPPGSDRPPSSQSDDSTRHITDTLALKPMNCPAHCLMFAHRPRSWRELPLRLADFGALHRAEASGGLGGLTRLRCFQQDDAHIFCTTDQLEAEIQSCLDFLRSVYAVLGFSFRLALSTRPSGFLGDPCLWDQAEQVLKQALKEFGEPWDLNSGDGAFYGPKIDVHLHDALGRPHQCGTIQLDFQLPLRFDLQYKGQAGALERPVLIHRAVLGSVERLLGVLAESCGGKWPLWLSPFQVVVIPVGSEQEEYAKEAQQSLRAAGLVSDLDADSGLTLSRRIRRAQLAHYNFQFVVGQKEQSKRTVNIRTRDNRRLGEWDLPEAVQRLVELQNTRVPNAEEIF

[10] = molecular target: NARS2 (human) (UniProt Q96I59)
[11] = molecular target: GLUD1 (human) (UniProt P00367)
[12] = molecular target: CRAT (human) (UniProt P43155)
[13] = molecular target: GTPBP3 (human) (UniProt Q969Y2)
[14] = molecular target: COQ6 (human) (UniProt Q9Y2Z9)
[15] = molecular target: FECH (human) (UniProt P22830)
Sequence of FECH (human) (P22830 55-423 limits assumed): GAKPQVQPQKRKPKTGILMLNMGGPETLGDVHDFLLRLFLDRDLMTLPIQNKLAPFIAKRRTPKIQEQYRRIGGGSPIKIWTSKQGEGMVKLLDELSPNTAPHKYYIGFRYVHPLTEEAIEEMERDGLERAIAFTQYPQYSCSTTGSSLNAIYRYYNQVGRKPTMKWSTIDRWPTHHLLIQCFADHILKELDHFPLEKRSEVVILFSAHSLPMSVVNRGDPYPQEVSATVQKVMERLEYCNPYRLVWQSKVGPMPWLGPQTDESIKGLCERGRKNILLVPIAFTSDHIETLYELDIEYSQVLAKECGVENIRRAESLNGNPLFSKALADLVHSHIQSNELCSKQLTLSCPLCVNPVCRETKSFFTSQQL

[16] = molecular target: GUF1 (human) (UniProt Q8N442)
Sequence of GUF1 (human) (Q8N442 50-669 limits assumed): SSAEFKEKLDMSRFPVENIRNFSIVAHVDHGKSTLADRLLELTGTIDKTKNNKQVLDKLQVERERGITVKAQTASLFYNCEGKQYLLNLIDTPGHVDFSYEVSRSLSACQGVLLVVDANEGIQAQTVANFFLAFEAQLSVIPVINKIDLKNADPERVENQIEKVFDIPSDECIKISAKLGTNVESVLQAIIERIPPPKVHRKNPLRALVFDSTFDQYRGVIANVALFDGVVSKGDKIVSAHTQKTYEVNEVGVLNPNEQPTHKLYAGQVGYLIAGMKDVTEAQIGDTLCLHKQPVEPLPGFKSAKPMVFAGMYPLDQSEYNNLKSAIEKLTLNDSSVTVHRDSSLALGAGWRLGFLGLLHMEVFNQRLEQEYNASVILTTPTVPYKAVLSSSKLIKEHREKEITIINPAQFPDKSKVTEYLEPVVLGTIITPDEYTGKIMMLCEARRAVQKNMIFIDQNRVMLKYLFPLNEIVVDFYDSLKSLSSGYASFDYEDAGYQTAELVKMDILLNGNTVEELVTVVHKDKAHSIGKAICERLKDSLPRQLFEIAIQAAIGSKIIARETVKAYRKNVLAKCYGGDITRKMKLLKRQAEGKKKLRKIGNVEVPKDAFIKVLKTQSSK

[17] = molecular target: FASTKD2 (human) (UniProt Q9NYY8)
[18] = molecular target: MTIF2 (human) (UniProt P46199)
[19] = molecular target: C7orf55 (human) (UniProt Q96HJ9)
[20] = molecular target: GRPEL1 (human) (UniProt Q9HAV7)
Sequence of GRPEL1 (human) (Q9HAV7 28-217 limits assumed): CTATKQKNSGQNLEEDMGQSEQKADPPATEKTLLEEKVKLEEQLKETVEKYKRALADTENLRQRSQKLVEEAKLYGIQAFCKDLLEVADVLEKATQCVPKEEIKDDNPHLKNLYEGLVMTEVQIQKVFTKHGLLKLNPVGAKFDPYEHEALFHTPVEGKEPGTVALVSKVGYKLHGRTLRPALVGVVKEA

[21] = molecular target: HIBCH (human) (UniProt Q6NVY1)
Sequence of HIBCH (human) (Q6NVY1 33-386 limits assumed): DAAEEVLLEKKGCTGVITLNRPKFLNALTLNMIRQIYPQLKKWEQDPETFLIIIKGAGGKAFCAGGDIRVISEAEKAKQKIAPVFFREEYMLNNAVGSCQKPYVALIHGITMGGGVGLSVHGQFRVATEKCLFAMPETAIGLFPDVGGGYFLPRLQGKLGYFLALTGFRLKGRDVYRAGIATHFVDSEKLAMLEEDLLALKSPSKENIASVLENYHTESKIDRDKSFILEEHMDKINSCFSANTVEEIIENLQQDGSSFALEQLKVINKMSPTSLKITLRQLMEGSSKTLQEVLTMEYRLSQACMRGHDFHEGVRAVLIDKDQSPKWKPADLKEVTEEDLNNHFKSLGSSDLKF

[22] = molecular target: PAM16 (human) (UniProt Q9Y3D7)
Sequence of PAM16 (human) (Q9Y3D7 whole entry): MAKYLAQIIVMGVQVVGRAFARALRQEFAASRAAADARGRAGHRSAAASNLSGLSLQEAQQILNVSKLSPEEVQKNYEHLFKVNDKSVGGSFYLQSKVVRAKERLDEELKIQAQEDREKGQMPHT

[23] = molecular target: NIPSNAP1 (human) (UniProt Q9BPW8)
[24] = molecular target: MRPS25 (human) (UniProt P82663)
[25] = molecular target: VARS2 (human) (UniProt Q5ST30)
Sequence of VARS2 (human) (Q5ST30 27-1063 limits assumed): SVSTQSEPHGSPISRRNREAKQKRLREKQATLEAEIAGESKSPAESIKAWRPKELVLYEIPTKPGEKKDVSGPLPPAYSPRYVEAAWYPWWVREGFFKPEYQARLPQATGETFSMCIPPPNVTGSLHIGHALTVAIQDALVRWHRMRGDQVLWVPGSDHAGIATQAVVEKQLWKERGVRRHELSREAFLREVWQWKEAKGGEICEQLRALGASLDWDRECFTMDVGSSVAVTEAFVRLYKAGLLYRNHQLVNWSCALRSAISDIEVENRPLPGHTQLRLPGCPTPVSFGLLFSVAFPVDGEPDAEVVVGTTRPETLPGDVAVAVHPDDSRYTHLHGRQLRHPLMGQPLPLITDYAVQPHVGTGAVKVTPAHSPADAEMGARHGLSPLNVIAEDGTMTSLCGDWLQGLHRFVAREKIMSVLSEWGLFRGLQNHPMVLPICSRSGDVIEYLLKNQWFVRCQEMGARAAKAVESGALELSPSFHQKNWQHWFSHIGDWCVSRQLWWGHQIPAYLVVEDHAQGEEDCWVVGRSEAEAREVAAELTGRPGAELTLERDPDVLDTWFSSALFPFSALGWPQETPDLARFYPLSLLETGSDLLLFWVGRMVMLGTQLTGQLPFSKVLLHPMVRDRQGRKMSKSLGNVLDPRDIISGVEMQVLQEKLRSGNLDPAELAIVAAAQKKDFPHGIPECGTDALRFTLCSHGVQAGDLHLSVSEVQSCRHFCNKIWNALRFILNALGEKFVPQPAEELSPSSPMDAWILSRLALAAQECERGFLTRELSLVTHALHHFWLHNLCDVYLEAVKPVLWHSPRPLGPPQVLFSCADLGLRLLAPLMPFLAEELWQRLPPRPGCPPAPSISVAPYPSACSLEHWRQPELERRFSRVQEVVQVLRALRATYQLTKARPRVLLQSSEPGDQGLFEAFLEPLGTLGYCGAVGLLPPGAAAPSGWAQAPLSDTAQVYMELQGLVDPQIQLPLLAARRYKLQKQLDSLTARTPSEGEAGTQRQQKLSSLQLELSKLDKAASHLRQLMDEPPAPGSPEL

[26] = molecular target: PYCR2 (human) (UniProt Q96C36)
[27] = molecular target: PET112 (human) (UniProt O75879)
[28] = molecular target: ACAT1 (human) (UniProt P24752)
[29] = molecular target: HSPA1L (human) (UniProt P34931)
[30] = molecular target: NDUFAF1 (human) (UniProt Q9Y375)
[31] = molecular target: NDUFS2 (human) (UniProt O75306)
[32] = molecular target: ALDH6A1 (human) (UniProt Q02252)
[33] = molecular target: NMNAT3 (human) (UniProt Q96T66)
[34] = molecular target: GATC (human) (UniProt O43716)
Sequence of GATC (human) (O43716 58-136 limits assumed): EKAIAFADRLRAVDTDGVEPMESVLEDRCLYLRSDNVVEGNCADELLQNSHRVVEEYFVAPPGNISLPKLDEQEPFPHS

[35] = molecular target: RPS15A (human) (UniProt P62244)
[36] = molecular target: NDUFA6 (human) (UniProt P56556)
[37] = molecular target: ACAD10 (human) (UniProt Q6JQN1)
[38] = molecular target: GATB (human) (UniProt O75879)
[39] = molecular target: TAC01 (human) (UniProt Q9BSH4)
[40] = molecular target: RNMTL1 (human) (UniProt Q9HC36)
[41] = molecular target: MARS2 (human) (UniProt Q96GW9)
[42] = molecular target: GLS (human) (UniProt O94925)
[43] = molecular target: WARS2 (human) (UniProt Q9UGM6)
[44] = molecular target: XPNPEP3 (human) (UniProt Q9NQH7)
[45] = molecular target: C12orf10 (human) (UniProt Q9HB07)
[46] = molecular target: ACADM (human) (UniProt P11310)
[47] = molecular target: OXCT1 (human) (UniProt P55809)
[48] = molecular target: RTN4IP1 (human) (UniProt Q8WWV3)
Sequence of RTN4IP1 (human) (Q8WWV3 41-396 limits assumed): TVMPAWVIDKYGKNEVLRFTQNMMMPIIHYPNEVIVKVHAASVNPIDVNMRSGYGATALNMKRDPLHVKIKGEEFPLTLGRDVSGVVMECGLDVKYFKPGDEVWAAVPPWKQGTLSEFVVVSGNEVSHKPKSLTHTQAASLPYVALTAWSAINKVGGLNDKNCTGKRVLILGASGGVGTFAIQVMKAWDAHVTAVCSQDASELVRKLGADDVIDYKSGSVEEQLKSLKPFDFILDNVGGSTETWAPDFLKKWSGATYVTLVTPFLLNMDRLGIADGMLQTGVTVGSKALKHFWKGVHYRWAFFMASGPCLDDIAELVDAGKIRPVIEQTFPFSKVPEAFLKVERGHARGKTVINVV

[49] = molecular target: PDIA3 (human) (UniProt P30101)
[50] = molecular target: MTRF1 (human) (UniProt O75570)
[51] = molecular target: NDUFAF7 (human) (UniProt Q7L592)
Sequence of NDUFAF7 (human) (Q7L592 47-441 limits assumed): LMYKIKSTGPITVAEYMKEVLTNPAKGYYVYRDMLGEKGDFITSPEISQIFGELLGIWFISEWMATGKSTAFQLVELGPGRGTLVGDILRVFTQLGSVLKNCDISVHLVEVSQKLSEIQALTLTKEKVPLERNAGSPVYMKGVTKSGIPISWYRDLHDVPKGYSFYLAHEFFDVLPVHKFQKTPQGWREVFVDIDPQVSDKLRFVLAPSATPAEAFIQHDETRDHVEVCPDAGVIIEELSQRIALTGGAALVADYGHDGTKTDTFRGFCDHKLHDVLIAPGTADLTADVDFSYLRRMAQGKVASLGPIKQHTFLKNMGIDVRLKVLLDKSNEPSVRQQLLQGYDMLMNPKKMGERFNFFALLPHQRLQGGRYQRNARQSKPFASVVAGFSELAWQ

Sequence of ARG2 (human) (P78540 23-354 limits assumed): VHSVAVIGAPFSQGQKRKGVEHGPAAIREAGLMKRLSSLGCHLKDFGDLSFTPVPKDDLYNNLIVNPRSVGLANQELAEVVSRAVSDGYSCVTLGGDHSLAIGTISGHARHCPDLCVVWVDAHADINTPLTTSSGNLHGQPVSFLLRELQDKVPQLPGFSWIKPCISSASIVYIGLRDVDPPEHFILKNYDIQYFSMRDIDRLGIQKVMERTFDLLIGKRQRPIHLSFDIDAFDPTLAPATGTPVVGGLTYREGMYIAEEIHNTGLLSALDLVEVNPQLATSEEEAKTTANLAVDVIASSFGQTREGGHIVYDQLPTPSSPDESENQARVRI

Substance: FlagBirA-ClpP (WT) (from UniProt P06709 1-321; Q16740 57-277) (enzyme)
- Log2 Fold change (vs control) [1]: -1.58 log2
- Log2 Fold change (vs control) [2]: -4 log2
- Log2 Fold change (vs control) [3]: -1.29 log2
- Log2 Fold change (vs control) [4]: -3.75 log2
- Log2 Fold change (vs control) [5]: -0.16 log2
- Log2 Fold change (vs control) [6]: -2.73 log2
- Log2 Fold change (vs control) [7]: -6.32 log2
- Log2 Fold change (vs control) [8]: -2.04 log2
- Log2 Fold change (vs control) [9]: -1.95 log2
- Log2 Fold change (vs control) [10]: -1.36 log2
- Log2 Fold change (vs control) [11]: -1.63 log2
- Log2 Fold change (vs control) [12]: -4 log2
- Log2 Fold change (vs control) [13]: -2.58 log2
- Log2 Fold change (vs control) [14]: -3.7 log2
- Log2 Fold change (vs control) [15]: -1.56 log2
- Log2 Fold change (vs control) [16]: -4.04 log2
- Log2 Fold change (vs control) [17]: -0.62 log2
- Log2 Fold change (vs control) [18]: -5.55 log2
- Log2 Fold change (vs control) [19]: -1.18 log2
- Log2 Fold change (vs control) [20]: -5.52 log2
- Log2 Fold change (vs control) [21]: -1.55 log2
- Log2 Fold change (vs control) [22]: -5.91 log2
- Log2 Fold change (vs control) [23]: -1.19 log2
- Log2 Fold change (vs control) [24]: -3.91 log2
- Log2 Fold change (vs control) [25]: -5.52 log2
- Log2 Fold change (vs control) [26]: -0.21 log2
- Log2 Fold change (vs control) [27]: -3.03 log2
- Log2 Fold change (vs control) [28]: -0.59 log2
- Log2 Fold change (vs control) [29]: 0.5 log2
- Log2 Fold change (vs control) [30]: -4.32 log2
- Log2 Fold change (vs control) [31]: -2.44 log2
- Log2 Fold change (vs control) [32]: -3.81 log2
- Log2 Fold change (vs control) [33]: -4 log2
- Log2 Fold change (vs control) [34]: -5.98 log2
- Log2 Fold change (vs control) [35]: -0.69 log2
- Log2 Fold change (vs control) [36]: -1.08 log2
- Log2 Fold change (vs control) [37]: -4.09 log2
- Log2 Fold change (vs control) [38]: -1.84 log2
- Log2 Fold change (vs control) [39]: -4.82 log2
- Log2 Fold change (vs control) [40]: 0.05 log2
- Log2 Fold change (vs control) [41]: -4.52 log2
- Log2 Fold change (vs control) [42]: -0.71 log2
- Log2 Fold change (vs control) [43]: -1.27 log2
- Log2 Fold change (vs control) [44]: -1.63 log2
- Log2 Fold change (vs control) [45]: -3.75 log2
- Log2 Fold change (vs control) [46]: -1.06 log2
- Log2 Fold change (vs control) [47]: -2.58 log2
- Log2 Fold change (vs control) [48]: -1.5 log2
- Log2 Fold change (vs control) [49]: 0.03 log2
- Log2 Fold change (vs control) [50]: -4.25 log2
- Log2 Fold change (vs control) [51]: -1.89 log2
